From patent US12624112 (MABWELL SHANGHAI BIOSCIENCE, dated 2026)
Values belong to the binder of their own block, whether it stands above or below them.

Key:
[1] = biological target: T1, ST2 on the effector cells (KU812, KU812/NF-κB-1#, HUVEC, HMC-1) (human, UniProt Q01638 19-556); assay: cell-based or functional assay
T1 sequence (looked up): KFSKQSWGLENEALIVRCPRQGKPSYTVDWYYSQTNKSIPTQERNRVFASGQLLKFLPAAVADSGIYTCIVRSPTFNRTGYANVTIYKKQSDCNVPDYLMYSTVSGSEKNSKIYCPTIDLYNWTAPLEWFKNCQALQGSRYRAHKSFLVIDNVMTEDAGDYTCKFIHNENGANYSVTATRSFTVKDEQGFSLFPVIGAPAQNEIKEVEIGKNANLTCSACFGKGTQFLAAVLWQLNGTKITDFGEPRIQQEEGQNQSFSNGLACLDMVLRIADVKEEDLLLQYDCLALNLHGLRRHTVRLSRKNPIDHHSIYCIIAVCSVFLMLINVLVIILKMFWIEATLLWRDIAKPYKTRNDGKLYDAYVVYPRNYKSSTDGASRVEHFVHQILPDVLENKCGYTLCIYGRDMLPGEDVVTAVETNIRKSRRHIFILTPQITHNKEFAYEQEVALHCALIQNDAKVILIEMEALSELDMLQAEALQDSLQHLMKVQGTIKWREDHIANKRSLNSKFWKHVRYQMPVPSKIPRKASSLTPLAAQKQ

[2] = biological target: T1, ST2 on the effector cells (KU812, …); assay: cell-based or functional assay; remark: listed apart in the source
[3] = biological target: T1, ST2 on the effector cells (KU812, …); assay: cell-based or functional assay; remark: listed apart in the source
[4] = biological target: T1, ST2 on the effector cells (KU812, …); assay: cell-based or functional assay; remark: listed apart in the source
[5] = biological target: T1, ST2 on the effector cells (KU812, …); assay: cell-based or functional assay; remark: listed apart in the source
Human ST2-fc (human) = Human ST2-fc (human) (UniProt Q01638); assay: competition ELISA, coated ST2-fc, competitor IL33-his
Human ST2-his [6] = biological target: T2, Human ST2-his (human, UniProt Q01638-2 19-328, limits assumed); assay: SPR Biacore X100, ratio of kd at pH 5.5 to kd at pH 7.4
T2 construct: Expressed in CHO-K1; The printed range starts at Met1; also called human ST2 fused with a 6-histidine tag at the C-terminus
T2 sequence: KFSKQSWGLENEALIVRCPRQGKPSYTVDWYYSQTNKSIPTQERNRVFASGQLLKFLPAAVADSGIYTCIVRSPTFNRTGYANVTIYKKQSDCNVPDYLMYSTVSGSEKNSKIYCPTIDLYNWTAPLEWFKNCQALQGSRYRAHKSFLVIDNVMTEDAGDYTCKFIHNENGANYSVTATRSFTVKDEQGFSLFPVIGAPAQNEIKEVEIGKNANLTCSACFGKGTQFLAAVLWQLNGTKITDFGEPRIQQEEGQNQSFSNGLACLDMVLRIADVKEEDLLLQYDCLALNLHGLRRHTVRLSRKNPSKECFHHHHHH
Method: (§1) The experiment on the interaction between the anti-human ST2 antibodies and human ST2-his was performed using Biacore X100.
(§2) Each anti-human ST2 antibody was diluted to 2 µg/mL and captured on the surface of a protein A chip for a capture time of 60 s. Following the antibody capture, a solution of human ST2-his (2-fold gradient dilution from a starting concentration of 20 nM, to obtain 6 concentrations in total) was injected. Association was monitored for 180 s and dissociation was monitored for 700 s, and the sensor surface was regenerated by injecting a solution of glycine at pH 2.0. Kinetic data were analyzed using a simple 1:1 binding model.

Human ST2-his [7] = biological target: T2, Human ST2-his; assay: SPR Biacore X100, antibody captured on protein A chip, human ST2-his injected, pH 7.4
Method: as §1, §2

Human ST2-his [8] = biological target: T2, Human ST2-his; assay: SPR Biacore X100, antibody captured on protein A chip, human ST2-his injected, dissociation at pH 5.5
Method: as §1, §2

ST2 on KU812 cells [9] = biological target: T3, ST2 on KU812 cells (UniProt Q01638 19-556, limits assumed); assay: cell-based or functional assay
T3 sequence (looked up): T1 sequence (looked up)

ST2 on KU812 cells [10] = biological target: T3, ST2 on KU812 cells; assay: cell-based or functional assay; remark: listed apart in the source
Cyno ST2-fc [11] = biological target: T4, Cyno ST2-fc (cyno; human, UniProt A0A2K5UDB8 19-331); assay: ELISA, coated cyno ST2-fc
T4 construct: also called cyno ST2 fused with a human IgG1 Fc tag at the C-terminus
T4 sequence: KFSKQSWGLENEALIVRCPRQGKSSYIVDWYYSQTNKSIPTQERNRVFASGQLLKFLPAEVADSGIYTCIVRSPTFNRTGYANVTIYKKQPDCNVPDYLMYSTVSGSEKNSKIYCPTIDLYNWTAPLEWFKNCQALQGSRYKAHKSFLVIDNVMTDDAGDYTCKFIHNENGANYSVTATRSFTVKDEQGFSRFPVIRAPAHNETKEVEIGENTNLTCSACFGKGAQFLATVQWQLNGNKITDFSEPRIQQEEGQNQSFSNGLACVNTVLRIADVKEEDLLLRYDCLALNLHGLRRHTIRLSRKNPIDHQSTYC
Method: Cyno ST2-fc was diluted with a coating buffer to 1 μg/mL, added into 96-well plates at 50 μL/well and coated overnight at 4° C. Next day, the coated plates were taken, washed with PB ST for 3 times, and then incubated using a blocking buffer at room temperature for 1 hr. Subsequently, the plates were washed with PBST for 3 times again. Starting at 1000 ng/mL, each murine antibody was diluted 3-fold to obtain serial dilutions of 8 concentrations in total which were then added into the 96-well plates at 50 μL/well. The plates were incubated at room temperature for 1 hr, washed with PB ST for 3 times; and then a goat anti-mouse secondary antibody (1:10000) was added at 50 μL/well into the 96-well plates which subsequently were incubated at room temperature for 1 hr. The 96-well plates were washed with PB ST for 3 times, and TMB was added at 50 μL/well to develop color in dark for 10 min. Afterwards, 2 M sulfuric acid was added to stop reaction; and GD values at 450 nm were read by a microplate reader. It can be seen that the murine antibodies can bind to cyno ST2, with a binding trendency consistent with the binding to human ST2.

Human ST2-his [12] = biological target: T5, Human ST2-his (human, UniProt Q01638 19-328); assay: ELISA, coated human ST2-his
T5 construct: Expressed in CHO-K1; also called human ST2 fused with a 6-histidine tag at the C-terminus
T5 sequence: T2 sequence
Method: Human ST2-his was diluted with a coating buffer to 1 μg/mL, added into plates at 50 μL/well, and coated overnight at 4° C. Next day, the coated plates were taken, washed with PBST for 3 times, and then incubated using a blocking buffer at room temperature for 1 hr. Subsequently, the plates were washed with PBST for 3 times again. Starting at 100 ng/mL, each murine antibody was diluted 3-fold to obtain serial dilutions of 8 concentrations in total which were then added into the 96-well plates at 50 μL/well. The plates were incubated at room temperature for 1 hr, washed with PBST for 3 times; and then a goat anti-mouse secondary antibody (1:10000) was added at 50 μL/well into the 96-well plates which subsequently were incubated at room temperature for 1 hr. The 96-well plates were washed with PBST for 3 times, and TMVB was added at 50 μL/well to develop color in dark for 10 min. Afterwards, 2 M sulfuric acid was added to stop reaction; and GD values at 450 nm were read by a micro-plate reader.

Cyno ST2-fc [13] = biological target: T4, Cyno ST2-fc; assay: SPR Biacore X100, antibody on CM5, cyno ST2-fc analyte
Method: The experiment on the interactions between the anti-human ST2 antibodies and cyno ST2-fc was performed using Biacore X100, and was carried out at 25° C. in HBS-EP (1×) buffer (pH 7.4). Each antibody was immobilized on the surface of CM5 chip using an amino coupling kit. Following the antibody immobilization, a solution of cyno ST2-fc (2-fold gradient dilution from a starting concentration of 8 nM, to obtain 6 concentrations in total; the starting concentration might be increased if the signal of some sample was too low) was injected. Association was monitored for 2 min and dissociation for 10 min, and the sensor surface was regenerated by injecting a solution of glycine at pH 1.5.

Human ST2-his [14] = biological target: T5, Human ST2-his; assay: SPR Biacore X100, antibody on protein A, ST2-his analyte
Method: On the basis of the results of the quantitative screenings of murine antibodies above together, 19 murine antibodies were selected for affinity determination and in vitro pharmacological study. The experiment on the interaction between the anti-human ST2 antibodies and human ST2-his was performed using Biacore X100, and was carried out at 25° C. in HBS-EP (1×) buffer (pH 7.4).
Each anti-human ST2 antibody was diluted to 10 nM and captured on the surface of a protein A chip (for a capture time of 60 s). […] Association was monitored for 4 min and dissociation for 10 min, and the sensor surface was regenerated by injecting a solution of glycine at pH 2.0. Data generated for kinetics and affinity assay were analyzed using BIAevaluation software.

IC50, inhibition of KU812-IL5 production promoted by IL-33 (human IL33-his) [1]: 0.0874 µg/mL
Maximum inhibition rate, KU812-IL5 production by IL-33 [1]: 99.4%
Relative activity compared with CNTO7160, KU812-IL5 production by IL-33 [1]: 131%
IC50, inhibition of KU812-IL5 production promoted by oxidized IL33 [2]: 0.0161 µg/mL
Maximum inhibition rate, KU812-IL5 production by oxidized IL33 [2]: 101%
Relative activity, KU812-IL5 production by oxidized IL33 [2]: 137%
IC50, inhibition of KU812-IL5 production promoted by reduced IL33 [3]: 2.87 µg/mL
Maximum inhibition rate, KU812-IL5 production by reduced IL33 [3]: 96.7%
Relative activity, KU812-IL5 production by reduced IL33 [3]: 51.1%
IC50, inhibition of HUVEC-IL6 production promoted by IL33 [4]: 16.1 µg/mL
Maximum inhibition rate, HUVEC-IL6 production by IL33 [4]: 83%
Relative activity, HUVEC-IL6 production by IL33 [4]: 16.9%
IC50, inhibition of HMC-1 IL8 production promoted by IL33 [5]: 0.334 µg/mL
Maximum inhibition rate, HMC-1 IL8 production by IL33 [5]: 85.6%
Relative activity, HMC-1 IL8 production by IL33 [5]: 30.1%
IC50 (Human ST2-fc (human)): 0.465 µg/mL
Maximum inhibition rate (Human ST2-fc (human)): 89.1%
Relative activity compared with CNTO7160 (Human ST2-fc (human)): 188%
kd ratio of pH 5.5/pH 7.4 (Human ST2-his [6]): 7.26
Kd (Human ST2-his [7]): 0.452 nM
koff (Human ST2-his [7]): 0.000351 s⁻¹
kon (Human ST2-his [7]): 777000 M⁻¹ s⁻¹
Kd (Human ST2-his [8]): 1.43 nM
koff (Human ST2-his [8]): 0.00255 s⁻¹
kon (Human ST2-his [8]): 1.79e+06 M⁻¹ s⁻¹
B1: 5888-379-H1L0 (antibody, human IgG4 S228P, kappa, V domains shown)
VH: QVQLVQSGAEVKKPGASVKVSCKASGYTFINYGMNWVRQAPGQRLEWMGWINTYIGEPTYGDNFKGRVTITRDTSASTAYMELSSLRSEDTAVYYCAREGEGFAYWGQGTLVTVSS
VL: DIQMTQSPSSLSASVGDRVTITCKSSQSLLYSGNQNNYLAWYQQKPGKVPKLLIYGASTRESGVPSRFSGSGSGTDFTLTISSLQPEDVATYYCQNDHSYPYTFGGGTKVEIKR
notes: Humanized antibody

IC50, activation of KU812-NF-κB reporter gene by IL33 (ST2 on KU812 cells [9]): 0.391 µg/mL
Relative activity (%) compared with CNTO7160, KU812-NF-κB reporter (ST2 on KU812 cells [9]): 64.2%
Maximum inhibition rate (%), KU812 IL-5 production (ST2 on KU812 cells [10]): 92.7%
Relative activity (%), KU812 IL-5 production (ST2 on KU812 cells [10]): 19.2%
EC50 (Cyno ST2-fc [11]): 0.0602 µg/mL
Relative activity (%) (Cyno ST2-fc [11]): 40.6%
EC50 (Human ST2-his [12]): 0.0295 µg/mL
Relative activity (%) compared with CNTO7160 (Human ST2-his [12]): 33.9%
IC50 (Human ST2-fc (human)): 0.83 µg/mL
Relative activity (%) compared with CNTO7160 (Human ST2-fc (human)): 70.1%
Kd (Cyno ST2-fc [13]): 0.0317 nM
koff (Cyno ST2-fc [13]): 0.000152 s⁻¹
kon (Cyno ST2-fc [13]): 4.78e+06 M⁻¹ s⁻¹
Kd (Human ST2-his [14]): 0.571 nM
koff (Human ST2-his [14]): 0.000546 s⁻¹
kon (Human ST2-his [14]): 957000 M⁻¹ s⁻¹
B2: 5888-379H1+L2 (antibody, V domains shown)
VH: QIQLAQSGPELKKPGETVKISCKASGYTFINYGMNWVKQAPGKDLKWMGWINTYIGEPTYGDNFKGRFAFSLETSASTVYLQINNLKNEDTATYFCAREGDGFAYWGQGTLVTVSA
VL: DIVMTQSPPSLSVSVGEKVTMSCKSSQSLLYSGNQNNYLAWYQQKPGQPPKLLIYGASTRESGVPDRFTGSGSGTDFTLTISSVQAEDLAVYYCQNDHSYPYTFGGGTKLEIK
notes: murine antibody
